This is an account of results in US6010856, “Assay systems and methods for measuring P38 map kinase, and modulators thereof” (The Scripps Research Institute).

The target in data set [1] is MEF2C phosphorylated by p38 (UniProt Q06413-3 Q06413-3:1-441). Put plainly: EMSA; p38 phosphorylation did not reduce binding but decreased complex mobility. The settings on record: tags: in vitro translated then treated with recombinant p38; label: 32P. The source says: (§1) Members of the MEF2 family bind to conserved A/T-rich DNA sequences—CTA[A/T]_4TAG/A—found in the regulatory regions of many muscle-specific genes (Y. -T. Yu et al., Genes and Develop. 6, 1783 (1992). Binding of MEF2C to the consensus site can be detected by electrophoretic mobility-shift analysis (EMSA) (J. F. Martin et al., Proc. Natl. Acad. Sci. USA, 90, 5282 (1993); J. C. McDermott et al., Mol. Cell. Biol. 13, 2564 (1994); D. Leifer et al., Proc. Natl. Acad. Sci. USA 90, 11546 (1993)). To test whether the phosphorylation of MEF2C alters MEF2C binding to its consensus DNA binding site the mobility of the MEF2C-DNA probe complex formed by MEF2C before and after its treatment with wtp38 was compared (FIG. 3).
Chain of MEF2C phosphorylated by p38 (Q06413 other isoform, or with tags, fused parts or gaps): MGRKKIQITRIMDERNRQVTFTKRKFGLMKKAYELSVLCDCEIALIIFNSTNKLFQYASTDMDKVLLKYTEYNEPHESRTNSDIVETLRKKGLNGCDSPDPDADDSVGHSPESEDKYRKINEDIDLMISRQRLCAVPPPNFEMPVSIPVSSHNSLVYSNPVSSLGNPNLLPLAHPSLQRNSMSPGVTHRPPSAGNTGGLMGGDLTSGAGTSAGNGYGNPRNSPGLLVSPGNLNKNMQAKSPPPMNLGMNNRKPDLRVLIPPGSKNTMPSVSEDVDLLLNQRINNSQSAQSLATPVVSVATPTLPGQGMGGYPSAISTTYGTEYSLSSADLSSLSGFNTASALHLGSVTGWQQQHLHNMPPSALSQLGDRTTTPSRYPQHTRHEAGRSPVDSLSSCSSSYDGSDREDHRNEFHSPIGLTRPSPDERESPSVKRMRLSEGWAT
(§2) Binding of MEF2C to oligonucleotides containing the MEF2 consensus site determined by electrophoretic mobility-shift assay (EMSA). The oligonucleotide probe was double-stranded ^32P-labeled oligonucleotide containing the MEF2 consensus binding site (Oligonucleotides sequence, MEF2C: GATCGCT CTAAAAATAACCCTGTCG (SEQ ID NO: 1); MEF2Cmut: […] (SEQ ID NO: 2)) and the positions of free probe (F) and of bound probe (B_1 and B_2) are indicated by arrows. […]

A further data set addresses MEF2C (UniProt Q06413-3 Q06413-3:1-441). Briefly: EMSA; complexes B1 and B2. As to conditions: tags: in vitro translated from MEF2C cDNA; label: 32P.
Source text: as §1, §2
In general terms: A gel shift assay detects complexes by their altered migration in electrophoresis.

Chain of MEF2C (Q06413 other isoform, or with tags, fused parts or gaps): as above

B1: MEF2C consensus site probe (dsDNA)
DNA 1: GATCGCTCTAAAAATAACCCTGTCG
DNA 2: CGACAGGGTTATTTTTAGAGCGATC
For B1, the binding result (in data set [1]; with MEF2C) was “binds” in each case.
